Measured values published in article doi:10.1101/2024.07.29.605519.

Key:
[1] = molecular target: SCRM KiDoK peptide (Arabidopsis); experiment: ITC; as a3, but MPK6ΔNt (29–305) pre-incubated with the small molecule kC9
[2] = molecular target: SCRM KiDoK peptide (Arabidopsis); experiment: BLI; Octet Red96; biotinylated SCRM KiDoK peptide (500 nM) loaded on streptavidin probes, MPK6 as analyte (150 nM and two-fold dilutions); 25 °C; 1x PBS, 2 % DMSO, 0.02 % Tween20, 0.1 % BSA; 1:1 model, Kd from steady-state analysis; without kC9
[3] = molecular target: SCRM KiDoK peptide (Arabidopsis); experiment: ITC; Malvern PEAQ-ITC, 25 °C, PBS pH 7.4 with 2% DMSO; SCRM KiDoK peptide with MPK6ΔNt (29–305); without kC9
[4] = molecular target: SCRM KiDoK peptide (Arabidopsis); experiment: BLI; as a1, but MPK6 pre-incubated with the small molecule kC9 (MPK6:kC9 1:1.5 in the methods, 1:2 in the legend) as analyte

MPK6ΔNt (29–305), sequence (Q39026 29-305, stated change not applied): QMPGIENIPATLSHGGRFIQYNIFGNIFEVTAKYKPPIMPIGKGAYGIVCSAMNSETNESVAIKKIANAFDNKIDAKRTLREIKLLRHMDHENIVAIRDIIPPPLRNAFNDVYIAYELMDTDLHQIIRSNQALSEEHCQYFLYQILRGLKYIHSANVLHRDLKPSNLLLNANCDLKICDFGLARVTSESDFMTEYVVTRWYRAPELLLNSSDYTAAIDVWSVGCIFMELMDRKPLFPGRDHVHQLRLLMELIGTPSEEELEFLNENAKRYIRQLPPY

- Kd [1]: 1400 nM
- Kd [2]: 40.1 nM
- Kd [3]: 43.4 nM
- Kd [4]: 856 nM
Substance: MPK6ΔNt (29–305) (from UniProt Q39026 29-305) (domain or fragment)
